Where two headings read alike, the source gives them in different places. Where a SMILES comes first, the peptide text is derived from it. Where no end group is shown, it is not given here. The star is where a group is joined. 6FAM = O=C1OC2(c3ccc(O)cc3Oc3cc(O)ccc32)c2cc(C(=O)*)ccc21
What was measured:
RecG (WT) = biological target: T1, RecG (WT) (Escherichia coli, UniProt P24230); test: Fluorescence anisotropy binding of 6-FAM-labelled SSB peptides to wildtype RecG; parameters: species or system E. coli
T1 construct: RecG was expressed in STL2669/pT7pol26 (a gift from Dr Susan Lovett, Brandeis University) with overexpression plasmid pEAW111; made in house; host or cells: E. coli STL2669/pT7pol26
Experimental: SSB peptides (sequences listed in Figure 2) were designed with an N-terminal tryptophan residue for quantification and N-terminal 6-FAM label (Genscript). RecG was incubated with 0.2 M potassium glutamate, 1 mM DTT, 0.1 μg/ml BSA, 1 × RecA buffer (25 mM Tris-acetate, pH 7.6, 5% w/v glycerol, 3 mM potassium glutamate, 10 mM magnesium acetate, 1 mM DTT), and 10 nM labeled peptide at room temperature for 30 min. Fluorescence polarization (FP) values were measured at 25°C using a Beacon 2000 Fluorescence Polarization System. Polarization values were normalized to the FP value measured at 0 nM RecG. Normalized FP was converted to normalized anisotropy. Experiments were performed in triplicate, and the data were fit to a one site binding model (, where X is ligand concentration, Y is normalized anisotropy, Bmax is the maximum anisotropy, and KD is the dissociation constant) using GraphPad Prism Software.
Figure 2. RecG binds directly and specifically to the SSB-Ct. (A) Fluorescence anisotropy binding isotherms for RecG binding to SSB-Ct (black), SSB113 (violet), SSBΔF (blue), or SSB IDL (green) peptides. Peptide sequences are listed in parentheses with * representing an N-terminal 6-FAM label. Anisotropy values are normalized to the reading at 0 μM RecG. […] (B–E) ITC analysis of RecG/SSB binding. Thermograms (top) and binding isotherms (bottom) of titrations of (B) full-length SSB, (C) SSB-Ct peptide, (D) SSBΔF or (E) SSBΔF peptide into RecG solutions.
Two models explaining how RecG interacts with SSB have been proposed - RecG could interact with the SSB-Ct ([29]) or RecG could interact with the IDL ([48],[49]). To begin testing each model, we used an equilibrium fluorescence anisotropy assay to measure RecG binding to fluorescently labeled SSB-Ct or IDL peptides (Figure 2). Titration of RecG with the SSB-Ct peptide led to an increase in fluorescence anisotropy, which occurs when protein binding slows the tumbling rate of a labeled peptide ([90]). […] KD values in the low micromolar range are typical for SSB/SIP complexes ([10],[12–14],[19],[23]). […]

[1] = biological target: T2, RecG DNA helicase, wildtype (E. coli, UniProt P24230 1-693); test: ITC; SSB proteins or unlabeled peptides injected into RecG in the cell; 20 mM Tris-HCl pH 8.0, 150 mM NaCl, 10% glycerol, 1 mM EDTA, 1 mM β-mercaptoethanol; 25°C; one-site model; concentrations as monomers; conditions: both partners purified
T2 construct: RecG DNA helicase, E. coli, expressed from overexpression plasmid pEAW111; No tag is mentioned; also called WT RecG; source: E. coli STL2669/pT7pol26 with pEAW111, purified (ammonium sulfate, DEAE, Source 15Q, Source 15S)
T2 sequence (looked up): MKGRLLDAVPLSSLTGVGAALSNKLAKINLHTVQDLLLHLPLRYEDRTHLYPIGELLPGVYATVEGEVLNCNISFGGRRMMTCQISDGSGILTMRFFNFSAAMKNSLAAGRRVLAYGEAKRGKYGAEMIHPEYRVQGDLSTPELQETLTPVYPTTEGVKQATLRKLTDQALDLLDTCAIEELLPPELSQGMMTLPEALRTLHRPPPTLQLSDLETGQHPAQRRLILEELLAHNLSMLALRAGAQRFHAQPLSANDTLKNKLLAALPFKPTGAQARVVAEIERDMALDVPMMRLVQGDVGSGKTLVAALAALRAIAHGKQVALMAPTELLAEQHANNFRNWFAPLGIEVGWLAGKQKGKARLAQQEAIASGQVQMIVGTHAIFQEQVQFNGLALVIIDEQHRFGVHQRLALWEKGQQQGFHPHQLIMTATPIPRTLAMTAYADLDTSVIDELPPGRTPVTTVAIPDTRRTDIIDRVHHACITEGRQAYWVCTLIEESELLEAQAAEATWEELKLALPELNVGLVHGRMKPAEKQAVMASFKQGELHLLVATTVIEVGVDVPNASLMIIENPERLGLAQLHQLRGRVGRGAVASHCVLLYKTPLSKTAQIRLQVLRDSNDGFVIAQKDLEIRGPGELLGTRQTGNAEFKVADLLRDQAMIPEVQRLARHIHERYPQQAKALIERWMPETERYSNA

ΦX174 RF I DNA = test: DNA-dependent ATP hydrolysis assay (coupled spectrophotometric) of RecG proteins; type: biochemical; conditions: 150 nM RecG, 3 mM ATP, 37°C, pH 7.6, triplicate
Experimental: ATPase rates for wildtype and variant RecG proteins were determined using a coupled spectrophotometric assay ([86]). ATP hydrolysis reactions were conducted with 150 nM RecG in 1 × RecA buffer, supplemented with 1 mM DTT, 2.2 mM phosphor(enol)pyruvate, 10 units/ml pyruvate kinase, 10 units/ml lactate dehydrogenase, 2 mM NADH, and 3 mM ATP with varying concentrations of ΦX174 RF I (New England Biolabs) DNA at 37°C. DNA concentrations are represented in μM nucleotides (nt). A380 nm measured the conversion of NADH into NAD^+. Measurements were taken every 20–40 s on a Cary UV-Vis spectrophotometer. ATP hydrolysis rates were calculated by dividing the slope of A380 nm measurements over time over the linear region by ε380 nm = 1.21 mM^−1 cm^−1 for NADH and the cell path length (1 cm).
To more rigorously and quantitatively test the RecG HD2/SSB-Ct binding model, a RecG variant in which one of the putative SSB-binding residues is altered (RecG R474E) was purified and tested for binding to the SSB-Ct peptide and to full-length SSB in vitro. This variant was chosen because of the predicted interaction of the R474 side chain with the alpha-carboxyl group of SSB-Ct C-terminal Phe (Figure 3A). Analogous interactions have proven to be essential points of contact in other SIPs ([10],[19]). […] ATPase activity of RecG R474E was indistinguishable from that of wildtype RecG, with values for both maximal ATPase rates and the DNA concentrations required for 50% stimulation (KDNA) within error between the two proteins (Figure 4B and Table 2). Thus, we concluded that the RecG R474E variant was properly folded. To further examine the effect of the R474E sequence change, we also used ITC to measure RecG R474E binding to either the SSB-Ct or to full-length SSB. Binding was not detected in either titration (Figure 4C).
Figure 4.
We first measured binding to the SSB-Ct. […] RecG R95A binding to the SSB-Ct was expected since our experiments had shown that the peptide bound at a site in the RecG HD2 domain. […] This difference could be due to compromised DNA binding in the R95A variant. Arg95 is located on the DNA binding surface of the RecG wedge domain ([74]), and changing adjacent residues Phe96 or Phe97 to Ala results in drastic reductions in DNA binding and unwinding activity ([91]).

SSB [2] = conditions: S. cerevisiae pJ69-4a; Gal4 BD-RecG (variant) with Gal4 AD-SSB; SD His- and Ade-deficient plates, 30°C, 4–5 days
Experimental: SSB, RecG or RecG variants were N-terminally fused to the DNA binding domain (pGBD) or activation domain (pGAD) of the Gal4 transcription factor. Resulting plasmids (Supplementary Table S3) were transformed ([84]) in pairs into Saccharomyces cerevisiae strain pJ69-4a ([85]) and selected for on synthetic dextrose (SD) Leu- and Trp-deficient plates. Transformants were inoculated into SD Leu- and Trp-deficient liquid medium and grown at 30°C overnight rotating. Saturated overnight cultures were diluted to an OD600 nm of 1.0 in 2% glucose and serially diluted 10-fold in 2% glucose. Dilutions were spotted (10 μl) onto SD His- and Ade-deficient plates and grown at 30°C for 4–5 days. Plates were imaged on a Fotodyne gel doc. Site-directed mutagenesis of RecG in pGBD was performed by in vivo assembly mutagenesis ([78]) of pEAW1156.
A fourth charge-reversal variant of R484 was also tested as a control to determine whether an electrostatic change that is near, but not in, the putative SSB binding site would alter RecG binding to SSB. A yeast two-hybrid assay was used as an initial method to screen several RecG variants for interaction with SSB. In the two-hybrid assay, yeast were transformed with plasmids encoding SSB and RecG fused to the Gal4 activation and binding domains, respectively, and the RecG/SSB interaction was assessed by selecting for growth on selective medium plates. […]

SSB [3] = conditions: cited from earlier work
Description: In contra ... || To directly test whether the proposed RecG wedge domain IDL binding site is important for interaction with SSB, we purified a RecG R95A variant and measured its activity in vitro. […] We first measured binding to the SSB-Ct.

CC[C@H](C)[C@H](NC(=O)[C@H](CC(=O)O)NC(=O)[C@H](CC(=O)O)NC(=O)[C@H](CC(=O)O)NC(=O)[C@H](Cc1ccccc1)NC(=O)[C@H](CC(=O)O)NC(=O)[C@H](CCSC)NC(=O)[C@H](Cc1c[nH]c2ccccc12)NC(=O)c1ccc2c(c1)C1(OC2=O)c2ccc(O)cc2Oc2cc(O)ccc21)C(=O)N[C@@H](CO)C(=O)N[C@@H](Cc1ccccc1)C(=O)O [SSB113 peptide] (6FAM-WMDFDDDISF-OH)
Kd (RecG (WT)): 23 ± 3.1 µM

H-WMDFDDDIP [SSBΔF peptide]
Kd (RecG (WT); read-out: FP K D, WT RecG, fluorescence anisotropy, 10 nM N-terminal 6-FAM peptide, 0.2 M potassium glutamate, 25 mM Tris-acetate pH 7.6, 10 mM magnesium acetate, 30 min at room temperature, read at 25°C, one site fit, triplicate): > 30 µM

B1: SSB-Ct peptide, unlabeled (peptide)
peptide: WMDFDDDIPF
notes: N-terminal tryptophan residue added for quantification; C-terminal tip of SSB, E. coli; source: synthetic peptide (Genscript)
Kd [1]: 3.9 ± 0.8 µM
dH [1]: -4 ± 0.5 kcal/mol
stoichiometry N [1]: 0.92 ± 0.08

B2: RecG R474E: RecG Arg474Glu charge-reversal variant, HD2 domain (protein)
chain: MKGRLLDAVPLSSLTGVGAALSNKLAKINLHTVQDLLLHLPLRYEDRTHLYPIGELLPGVYATVEGEVLNCNISFGGRRMMTCQISDGSGILTMRFFNFSAAMKNSLAAGRRVLAYGEAKRGKYGAEMIHPEYRVQGDLSTPELQETLTPVYPTTEGVKQATLRKLTDQALDLLDTCAIEELLPPELSQGMMTLPEALRTLHRPPPTLQLSDLETGQHPAQRRLILEELLAHNLSMLALRAGAQRFHAQPLSANDTLKNKLLAALPFKPTGAQARVVAEIERDMALDVPMMRLVQGDVGSGKTLVAALAALRAIAHGKQVALMAPTELLAEQHANNFRNWFAPLGIEVGWLAGKQKGKARLAQQEAIASGQVQMIVGTHAIFQEQVQFNGLALVIIDEQHRFGVHQRLALWEKGQQQGFHPHQLIMTATPIPRTLAMTAYADLDTSVIDELPPGRTPVTTVAIPDTRRTDIIDEVHHACITEGRQAYWVCTLIEESELLEAQAAEATWEELKLALPELNVGLVHGRMKPAEKQAVMASFKQGELHLLVATTVIEVGVDVPNASLMIIENPERLGLAQLHQLRGRVGRGAVASHCVLLYKTPLSKTAQIRLQVLRDSNDGFVIAQKDLEIRGPGELLGTRQTGNAEFKVADLLRDQAMIPEVQRLARHIHERYPQQAKALIERWMPETERYSNA
modifications: left off: Gal4 DNA-binding domain, N-terminal, kept
K DNA (DNA concentration required for 50% stimulation of ATPase) (ΦX174 RF I DNA): 39.9 ± 2.9 μM nt
V max of ATP hydrolysis (ΦX174 RF I DNA): 363 ± 13 µM/min
yeast two-hybrid growth on selective medium (SSB [2]): failed to grow

B3: RecG R95A: RecG wedge domain variant (protein)
chain: MKGRLLDAVPLSSLTGVGAALSNKLAKINLHTVQDLLLHLPLRYEDRTHLYPIGELLPGVYATVEGEVLNCNISFGGRRMMTCQISDGSGILTMAFFNFSAAMKNSLAAGRRVLAYGEAKRGKYGAEMIHPEYRVQGDLSTPELQETLTPVYPTTEGVKQATLRKLTDQALDLLDTCAIEELLPPELSQGMMTLPEALRTLHRPPPTLQLSDLETGQHPAQRRLILEELLAHNLSMLALRAGAQRFHAQPLSANDTLKNKLLAALPFKPTGAQARVVAEIERDMALDVPMMRLVQGDVGSGKTLVAALAALRAIAHGKQVALMAPTELLAEQHANNFRNWFAPLGIEVGWLAGKQKGKARLAQQEAIASGQVQMIVGTHAIFQEQVQFNGLALVIIDEQHRFGVHQRLALWEKGQQQGFHPHQLIMTATPIPRTLAMTAYADLDTSVIDELPPGRTPVTTVAIPDTRRTDIIDRVHHACITEGRQAYWVCTLIEESELLEAQAAEATWEELKLALPELNVGLVHGRMKPAEKQAVMASFKQGELHLLVATTVIEVGVDVPNASLMIIENPERLGLAQLHQLRGRVGRGAVASHCVLLYKTPLSKTAQIRLQVLRDSNDGFVIAQKDLEIRGPGELLGTRQTGNAEFKVADLLRDQAMIPEVQRLARHIHERYPQQAKALIERWMPETERYSNA
modifications: left off: Gal4 DNA-binding domain, N-terminal, kept
notes: RecG wedge domain variant
K DNA (DNA concentration required for 50% stimulation of ATPase) (ΦX174 RF I DNA): 18.5 ± 4.9 μM nt
V max of ATP hydrolysis (ΦX174 RF I DNA): 127 ± 11 µM/min
yeast two-hybrid growth on selective medium (SSB [2]): grew on the selective medium
reduction in co-purification with SSB (SSB [3]; previous study): 24 fold
binding to SSB in co-purification assay, in words (SSB [3]; prior results): severely reduced binding to SSB
